# From the Immune Epitope Database (IEDB)
# pKd: −log10 of the molar value.
# Key:
# HLA-A*32:01 = test: IEDB peptide-MHC binding, purified MHC/competitive/radioactivity; filed as Kd, often an IC50 or EC50 that approximates it; ≥ and ≤ were set here for values at or beyond the usual limits of such assays
# HLA-A*01:01 = test: as above
# HLA-A*30:02 = test: as above
# HLA-A*26:01 = test: as above
# HLA-A*24:02 = test: as above
# HLA-A*29:02 = test: as above
# HLA-A*23:01 = test: as above
# HLA-A*31:01 = test: as above
# HLA-A*33:01 = test: as above
# HLA-A*68:01 = test: as above
# HLA-A*11:01 = test: as above
# HLA-A*02:01 = test: IEDB peptide-MHC binding, purified MHC/competitive/fluorescence; filed as Kd, often an IC50 or EC50 that approximates it; ≥ and ≤ were set here for values at or beyond the usual limits of such assays
# HLA-A*69:01 = test: IEDB peptide-MHC binding, purified MHC/direct/fluorescence; filed as Kd, often an IC50 or EC50 that approximates it; ≥ and ≤ were set here for values at or beyond the usual limits of such assays; settings: source organism: Mammarenavirus lassaense
# HLA-A*03:01 = test: IEDB peptide-MHC binding, purified MHC/competitive/radioactivity; filed as Kd, often an IC50 or EC50 that approximates it; ≥ and ≤ were set here for values at or beyond the usual limits of such assays; settings: source organism: Triticum aestivum
# [1] = source organism: Dengue virus 1 Brazil/97-11/1997
# [2] = source organism: Vaccinia virus WR
# [3] = source organism: Mammarenavirus whitewaterense
# [4] = source organism: SARS coronavirus Tor2
# [5] = source organism: Mammarenavirus lassaense
# [6] = source organism: Mammarenavirus guanaritoense
# [7] = source organism: Mammarenavirus brazilense
# [8] = source organism: Mammarenavirus machupoense
# [9] = source organism: Dengue virus 3 Martinique/1243/1999
# [10] = source organism: Mammarenavirus choriomeningitidis
# [11] = source organism: Mammarenavirus juninense
# [12] = source organism: Triticum aestivum
sequence,measurement,setting,value
QILLMRTTW,pKd,HLA-A*32:01; [1],7.66
RVLFNNFKI,pKd,HLA-A*32:01; [2],9.05
LRIPTHRHI,pKd,HLA-A*01:01; [3],≤ 4.59
same,pKd,HLA-A*30:02; [3],≤ 4.11
same,pKd,HLA-A*26:01; [3],≤ 4.11
same,pKd,HLA-A*24:02; [3],≤ 4.11
same,pKd,HLA-A*29:02; [3],≤ 4.47
same,pKd,HLA-A*23:01; [3],≤ 4.15
GTDLEGKFY,pKd,HLA-A*01:01; [4],7.48
same,pKd,HLA-A*30:02; [4],5.86
same,pKd,HLA-A*26:01; [4],≤ 4.41
same,pKd,HLA-A*24:02; [4],≤ 4.11
same,pKd,HLA-A*29:02; [4],6.56
same,pKd,HLA-A*23:01; [4],≤ 4.11
YFESYVRPFV,pKd,HLA-A*01:01; [5],≤ 4.15
same,pKd,HLA-A*30:02; [5],5.37
same,pKd,HLA-A*26:01; [5],≤ 4.34
same,pKd,HLA-A*24:02; [5],4.89
same,pKd,HLA-A*29:02; [5],5.40
same,pKd,HLA-A*23:01; [5],5.72
ATSRTLSYY,pKd,HLA-A*31:01; [4],5.41
same,pKd,HLA-A*01:01; [4],8.32
same,pKd,HLA-A*33:01; [4],≤ 4.11
same,pKd,HLA-A*30:02; [4],8.99
same,pKd,HLA-A*68:01; [4],5.92
same,pKd,HLA-A*26:01; [4],5.71
same,pKd,HLA-A*11:01; [4],7.55
same,pKd,HLA-A*24:02; [4],≤ 4.45
same,pKd,HLA-A*29:02; [4],7.92
same,pKd,HLA-A*23:01; [4],≤ 4.11
MYEMHRESLL,pKd,HLA-A*24:02; [6],5.50
same,pKd,HLA-A*29:02; [6],5.01
same,pKd,HLA-A*23:01; [6],6.06
MFSPIVPFW,pKd,HLA-A*01:01; [4],≤ 4.11
same,pKd,HLA-A*30:02; [4],≤ 4.52
same,pKd,HLA-A*26:01; [4],≤ 4.11
same,pKd,HLA-A*24:02; [4],6.95
same,pKd,HLA-A*29:02; [4],7.02
same,pKd,HLA-A*23:01; [4],7.53
RLKGVTCRLF,pKd,HLA-A*24:02; [7],6.14
same,pKd,HLA-A*29:02; [7],6.40
same,pKd,HLA-A*23:01; [7],7.01
IRHLFGNYI,pKd,HLA-A*01:01; [6],≤ 4.65
same,pKd,HLA-A*30:02; [6],≤ 4.62
same,pKd,HLA-A*26:01; [6],≤ 4.11
same,pKd,HLA-A*24:02; [6],≤ 4.36
same,pKd,HLA-A*29:02; [6],6.24
same,pKd,HLA-A*23:01; [6],≤ 4.66
LQFIVFLLL,pKd,HLA-A*24:02; [3],≤ 4.11
same,pKd,HLA-A*29:02; [3],5.33
same,pKd,HLA-A*23:01; [3],4.95
ADAGFMKQY,pKd,HLA-A*01:01; [4],≤ 4.06
same,pKd,HLA-A*30:02; [4],≤ 4.34
same,pKd,HLA-A*26:01; [4],≤ 4.09
same,pKd,HLA-A*24:02; [4],≤ 4.11
same,pKd,HLA-A*29:02; [4],4.82
same,pKd,HLA-A*23:01; [4],≤ 4.11
CMLDGGNML,pKd,HLA-A*02:01; source organism: Lassa virus Josiah,8.53
same,pKd,HLA-A*69:01,≤ 4.70
DNPYKTWAY,pKd,HLA-A*26:01; [1],5.19
TTQTSALSI,pKd,HLA-A*32:01; [2],6.84
FLHEDLEKL,pKd,HLA-A*02:01; source organism: unidentified,8.00
ILFPDDVQEL,pKd,HLA-A*02:01; [2],8.96
YIAVNDKALY,pKd,HLA-A*01:01; [4],7.89
same,pKd,HLA-A*30:02; [4],6.85
same,pKd,HLA-A*26:01; [4],5.59
same,pKd,HLA-A*24:02; [4],≤ 4.15
same,pKd,HLA-A*29:02; [4],8.06
same,pKd,HLA-A*23:01; [4],≤ 4.26
GYVVSNFEGV,pKd,HLA-A*01:01; [8],≤ 4.15
same,pKd,HLA-A*30:02; [8],≤ 4.16
same,pKd,HLA-A*26:01; [8],≤ 4.16
same,pKd,HLA-A*24:02; [8],≤ 4.15
same,pKd,HLA-A*29:02; [8],≤ 4.15
same,pKd,HLA-A*23:01; [8],≤ 4.15
QILASILSI,pKd,HLA-A*32:01; [2],7.66
RTFNRTHYW,pKd,HLA-A*32:01; [2],9.61
ENPYKTWAYH,pKd,HLA-A*26:01; [9],≤ 4.47
NVAYGAVSF,pKd,HLA-A*32:01; [2],6.87
CFANKHAGF,pKd,HLA-A*01:01; [4],≤ 4.11
same,pKd,HLA-A*30:02; [4],5.18
same,pKd,HLA-A*26:01; [4],4.93
same,pKd,HLA-A*24:02; [4],7.56
same,pKd,HLA-A*29:02; [4],7.54
same,pKd,HLA-A*23:01; [4],6.98
AMISLAKKI,pKd,HLA-A*02:01; source organism: Vaccinia virus WR 65-16,6.04
GPLTTLWEGS,pKd,HLA-A*32:01; [1],4.74
KTTAKEVAL,pKd,HLA-A*32:01; source organism: Dengue virus 4 Philippines/H241/1956,≤ 4.68
YVQRFFLRV,pKd,HLA-A*01:01; [6],5.99
same,pKd,HLA-A*30:02; [6],6.14
same,pKd,HLA-A*26:01; [6],≤ 4.11
same,pKd,HLA-A*24:02; [6],≤ 4.58
same,pKd,HLA-A*29:02; [6],6.12
same,pKd,HLA-A*23:01; [6],5.37
MGEDGCWYGM,pKd,HLA-A*32:01; [9],≤ 4.44
PDLKTIHNIL,pKd,HLA-A*01:01; [10],≤ 4.15
same,pKd,HLA-A*30:02; [10],4.99
same,pKd,HLA-A*26:01; [10],≤ 4.16
RWTQSLRRGL,pKd,HLA-A*24:02; [11],≤ 4.15
same,pKd,HLA-A*29:02; [11],5.89
same,pKd,HLA-A*23:01; [11],5.28
LFADINGKL,pKd,HLA-A*01:01; [4],≤ 4.11
same,pKd,HLA-A*30:02; [4],5.36
same,pKd,HLA-A*26:01; [4],≤ 4.38
same,pKd,HLA-A*24:02; [4],6.14
same,pKd,HLA-A*29:02; [4],6.33
same,pKd,HLA-A*23:01; [4],5.89
VSFQQPLQQY,pKd,HLA-A*31:01; [12],≤ 4.15
same,pKd,HLA-A*01:01; [12],7.41
same,pKd,HLA-A*33:01; [12],≤ 4.15
same,pKd,HLA-A*03:01,5.63
same,pKd,HLA-A*30:02; [12],5.22
same,pKd,HLA-A*68:01; [12],≤ 4.15
same,pKd,HLA-A*26:01; [12],≤ 4.37
same,pKd,HLA-A*11:01; [12],6.86
same,pKd,HLA-A*24:02; [12],≤ 4.15
same,pKd,HLA-A*29:02; [12],5.55
same,pKd,HLA-A*23:01; [12],≤ 4.37
HFAIGLALY,pKd,HLA-A*01:01; [4],≤ 3.92
same,pKd,HLA-A*30:02; [4],7.88
same,pKd,HLA-A*26:01; [4],6.62
same,pKd,HLA-A*24:02; [4],4.95
same,pKd,HLA-A*29:02; [4],8.33
same,pKd,HLA-A*23:01; [4],4.94
